Biological target: T1, MutS (Escherichia coli, UniProt P23909 1-853)
T1 sequence: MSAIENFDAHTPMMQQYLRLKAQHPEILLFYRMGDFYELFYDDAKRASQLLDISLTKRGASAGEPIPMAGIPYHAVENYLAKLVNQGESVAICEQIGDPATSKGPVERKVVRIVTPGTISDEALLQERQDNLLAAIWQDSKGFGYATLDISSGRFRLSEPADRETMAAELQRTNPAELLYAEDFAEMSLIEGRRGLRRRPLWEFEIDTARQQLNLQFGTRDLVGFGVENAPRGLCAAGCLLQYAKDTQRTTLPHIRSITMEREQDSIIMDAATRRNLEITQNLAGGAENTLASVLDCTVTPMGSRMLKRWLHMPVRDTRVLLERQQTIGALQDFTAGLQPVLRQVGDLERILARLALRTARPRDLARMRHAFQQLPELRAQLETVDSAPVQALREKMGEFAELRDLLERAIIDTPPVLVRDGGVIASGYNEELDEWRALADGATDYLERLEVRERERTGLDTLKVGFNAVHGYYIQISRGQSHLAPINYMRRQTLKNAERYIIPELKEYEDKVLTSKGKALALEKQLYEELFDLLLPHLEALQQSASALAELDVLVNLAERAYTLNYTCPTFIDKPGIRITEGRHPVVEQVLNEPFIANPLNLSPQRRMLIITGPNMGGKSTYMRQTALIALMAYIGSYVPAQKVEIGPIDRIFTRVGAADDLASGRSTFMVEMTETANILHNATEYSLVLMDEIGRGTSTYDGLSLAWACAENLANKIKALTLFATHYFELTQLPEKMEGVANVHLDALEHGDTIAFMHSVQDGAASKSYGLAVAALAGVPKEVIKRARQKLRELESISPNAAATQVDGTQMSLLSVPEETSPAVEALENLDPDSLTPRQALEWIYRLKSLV
Assay: EMSA (Scatchard); 1 mM ADP, 5 mM Mg2+; EMSA: 20 mM HEPES pH 8.0, 125 mM KCl, 1 mM ADP, 5 mM MgCl2, 1 mg/ml BSA, 9% glycerol, 37 C 20 min (gel at 4 C); fluorescence: 25 mM Tris-HCl pH 7.5, 125 mM KCl, 5 mM MgCl2, 1 mM ADP, 20 C
Details: protein: recombinant, tags: His-tag (Ni-NTA purified), chain copies: 2, label: 5'-32P, blunt

B1: duplex I (G/C) (dsDNA)
DNA 1: CAAGCCTATGCCCTCAGCACCCAGGGTGCC
DNA 2: GGCACCCTGGGTGCTGAGGGCATAGGCTTG
Work on B1 yielded a Kd of 0.032 ± 0.0033 µM.

B2: duplex II (G/T) (dsDNA)
DNA 1: CAAGCCTATGCCCTCAGCACCCAGGGTGCC
DNA 2: GGCACCTTGGGTGCTGAGGGCATAGGCTTG
Binder B2 has a Kd (G/T mismatch strand 1 G24 : strand 2 T7) of 0.007 ± 0.0015 µM.

B3: duplex III (G/Tg) (dsDNA)
DNA 1: CAAGCCTATGCCCTCAGCACCCAGGGTGCC
DNA 2: GGCACCTTGGGTGCTGAGGGCATAGGCTTG
modifications: thymidine glycol (5R,6S) at T7 of strand 2
B3 was tested, and the Kd (strand 1 G24 : strand 2 Tg7) was 0.044 ± 0.0023 µM.

B4: duplex IV (A/Tg) (dsDNA)
DNA 1: CAAGCCTATGCCCTCAGCACCCAAGGTGCC
DNA 2: GGCACCTTGGGTGCTGAGGGCATAGGCTTG
modifications: thymidine glycol (5R,6S) at T7 of strand 2
B4 showed a Kd (strand 1 A24 : strand 2 Tg7) of 0.025 ± 0.003 µM.
